# Measured values published in the supplement of paper PMC10126150.
# ± gives the standard deviation of the averaged measurements.
# System: ATP
# Test: switch fluorescence ratio, 500 uM ATP over buffer (Cy3 cluster intensity, sum of 5 cycles each) (fold (ratio)); higher = stronger signal-on switching upon ATP binding; sequences stand for … in TCGTCGGCAGCGTCAGATGTGTATAAGAGACAGTTTTTTTTTTTTTTTTTTTTTTTTT…TC
# Settings: aptamer strand: ATP DNA aptamer (quencher-CACCTGGGGGAGTATTGCGGAGGAAGG + anchor), 100 nM annealed; ATP concentration: 500 uM
# Procedure, shortened: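 Values give the fluorescence ratio for each switch-domain sequence, averaged from per-cluster ratios of summed target-cycle to summed buffer-cycle Cy3 intensity. The Cy3-labelled switching-strand clusters sat on a modified Illumina MiSeq flow-cell, were annealed to 100 nM quencher-labelled ATP aptamer, and were imaged in selection buffer, then after 15 min with 500 uM ATP at 22 °C. Five cycles ran with NaOH stripping and re-annealing between them, and clusters outside 100-1000 RFU were excluded.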
# 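Also: ATP exposure 15 min at 22 °C before imaging.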
row,Sequence,switch fluorescence ratio
1,TCCATTTATC,0.982 ± 0.04
2,AATGATGTAC,1.05 ± 0.01
3,ACCGCACCAA,1.34 ± 0.051
4,TCCATACAAG,0.983 ± 0.055
5,TCGCTTTTGG,1.02 ± 0.033
6,TTGAGAGCGG,1.01 ± 0.047
7,ACTTAGTCA,1.02 ± 0.021
8,TATTTAGGTA,1.022 ± 0.0031
9,AAAGTCGTTC,0.977 ± 0.028
10,GAGGAAGGGA,1.01 ± 0.017
11,TTAGTTTGTC,0.986 ± 0.063
12,TTATTCAAAA,1 ± 0.023
13,TCACACGTCG,1.02 ± 0.013
14,CGGCGAAGGG,0.961 ± 0.014
15,GCCGCAGGTC,1.23 ± 0.083
16,AGACCTTCTT,1.51 ± 0.025
17,GTAATGGGCA,1.03 ± 0.054
18,GTGATAGTGG,0.9385 ± 0.0022
19,AAGTAGGAAA,0.999 ± 0.013
20,GACCGTAATG,1.05 ± 0.03
21,ATGGGTGTCG,1.05 ± 0.015
22,TTCAGCGCGC,1.007 ± 0.0075
23,GAACTAGGTT,0.9847 ± 0.0035
24,TTATCCTGGT,0.975 ± 0.011
25,ATGCCCGTCG,1.06 ± 0.043

row,Sequence,switch fluorescence ratio
1,GCTTGCGGGA,1.03 ± 0.019
2,CAGATGGGGT,0.9839 ± 0.001
3,TCGGAGACTC,1.05 ± 0.022
4,CCGTTTGGTT,0.995 ± 0.064
5,TTTTGTGGCT,0.98 ± 0.02
6,TTTAATCAAA,0.988 ± 0.014
7,TTCAGGGAGG,1 ± 0.033
8,TTTGGAAAGG,0.977 ± 0.046
9,TGATTTTGTT,1.01 ± 0.018
10,CGACAAGCAG,1.09 ± 0.026
11,TGGGTCAAAT,1.02 ± 0.027
12,GCGCGCTAGT,1.007 ± 0.0024
13,GTTAGCAAGG,1.08 ± 0.018
14,TTAAGTGTGG,0.973 ± 0.031
15,AAGTTGTTCT,0.997 ± 0.014
16,ATGGTTTAGG,0.988 ± 0.038
17,GAAAAAGACT,1.04 ± 0.089
18,GGGAGCAAAG,1.04 ± 0.026
19,CTGTGATACT,2.93 ± 0.22
20,CGAGTAGGAA,0.984 ± 0.017
21,GGTATTTTGC,0.979 ± 0.048
22,AGGGTCATTC,0.975 ± 0.017
23,ATGGTGGGGC,0.979 ± 0.047
24,TAGGCGTGCG,0.976 ± 0.052
25,CTGGGGCGTC,0.993 ± 0.045

row,Sequence,switch fluorescence ratio
1,CTGTAAGGCC,0.981 ± 0.015
2,AAACGTTAGA,1.03 ± 0.0082
3,TGGTTAGGTT,0.966 ± 0.013
4,AAATTTAGTA,0.99 ± 0.018
5,CGACTGATAT,1.078 ± 0.0078
6,GGGTATACAG,1.01 ± 0.053
7,CCGAGAGAGC,1.13 ± 0.04
8,TGGGGTTTGT,0.976 ± 0.03
9,TTGTTGCTTG,1.02 ± 0.028
10,TTAGTTGGCA,0.981 ± 0.016
11,ATTTAGCTTA,1.0052 ± 0.00027
12,TGCAAAGAAA,1.15 ± 0.12
13,TGCTCAGCTG,1.04 ± 0.026
14,TTGCGGTCGT,1.002 ± 0.0023
15,GGCAGATTCC,1.05 ± 0.019
16,CGGTTTTTTA,0.964 ± 0.025
17,ACCACTAAAA,1.04 ± 0.019
18,CTGCTAAGTA,1.01 ± 0.013
19,CAGCATGTTT,0.988 ± 0.024
20,GGGGACTGAT,0.995 ± 0.022
21,GAAGTAGTTT,0.98 ± 0.089
22,TGTTTTGAGA,1 ± 0.023
23,AAGAAGGGAT,0.953 ± 0.016
24,TTATAGTTTG,0.997 ± 0.03
25,TCATTGATCG,0.987 ± 0.011

row,Sequence,switch fluorescence ratio
1,TCGGTTTTAC,1.033 ± 0.0061
2,TACATGGGCA,1.01 ± 0.044
3,CATGAGGGAG,0.996 ± 0.019
4,GGGGGATACT,1.04 ± 0.037
5,GGTTTAAATG,1.0317 ± 0.00089
6,CGGAATGTGT,1 ± 0.015
7,TAAAAGCTGA,0.989 ± 0.042
8,TTCTCGGGTT,0.99 ± 0.023
9,TTGGGGCGGT,1.05 ± 0.15
10,GGGCCCAGCT,1.02 ± 0.031
11,TCCCGATTGG,0.959 ± 0.028
12,CCGGGGTTTT,1.11 ± 0.22
13,TACGTAATTT,1.17 ± 0.018
14,TTCCGGCTTT,1.01 ± 0.033
15,AGCGGGGGAT,1.01 ± 0.027
16,TGCTTAAAGT,0.9807 ± 0.0054
17,CACTTGGTCG,1 ± 0.068
18,TCTTTCTTTT,1.03 ± 0.027
19,GAGTTGAGGA,0.98 ± 0.014
20,GGTGGTTTTT,1.03 ± 0.099
21,GGGTGTTTTC,0.998 ± 0.034
22,GTGGGGGGTT,0.993 ± 0.026
23,ATTCGTGGGA,0.9892 ± 0.0074
24,TCATTATAAT,1.006 ± 0.0062
25,GATTACGGCC,1.06 ± 0.035

row,Sequence,switch fluorescence ratio
1,GTTTTCGGGA,1.03 ± 0.013
2,CGACAATGTA,1.17 ± 0.018
3,TACTAGACAG,1.028 ± 0.0016
4,TTCACTGGTC,1.019 ± 0.0011
5,TGATGCTTT,1.01 ± 0.077
6,GCGTTTGGAC,1.056 ± 0.01
7,TTAGGTTCTC,0.991 ± 0.015
8,TATTTGTAGT,1.01 ± 0.039
9,GATGAGAGGG,1.002 ± 0.0059
10,GACTGAATAC,3.91 ± 1.9
11,AAGGGCTTCA,1.031 ± 0.0074
12,CGGAGGTAAG,0.994 ± 0.011
13,TATTGTATGA,1.029 ± 0.0049
14,AGTTGGGGGA,0.984 ± 0.014
15,GCTTGTGAGG,1.02 ± 0.022
16,TGTTGATACT,1.06 ± 0.12
17,TTCGGGACGC,1.03 ± 0.053
18,GGGGGAGCGT,1 ± 0.03
19,ACGGTATAGT,1.1 ± 0.017
20,GTTTAATATT,0.99 ± 0.026
21,TATAATCGGG,0.989 ± 0.015
22,GGGCTAGGCA,1.02 ± 0.014
23,GGGAAATTGG,1 ± 0.031
24,CGTTTGGGTC,1.01 ± 0.031
25,GGGGGACAGG,1.05 ± 0.072

row,Sequence,switch fluorescence ratio
1,TGGTCAGGGG,1.09 ± 0.056
2,GGATGTTTTT,1.03 ± 0.026
3,GATAATTGGT,0.998 ± 0.012
4,TCTTGATTAT,0.9795 ± 0.0085
5,GACTATTGGG,1 ± 0.044
6,GATGGCCGCG,1.03 ± 0.024
7,TGCATGAGCG,1.02 ± 0.032
8,TGTTTGTAGG,0.97 ± 0.043
9,ATCACATGAC,1.19 ± 0.016
10,GTAGGCATGG,1 ± 0.029
11,CGCGTACGGA,0.989 ± 0.005
12,AACACGGGTA,1.02 ± 0.055
13,TCGATTCAGT,0.9804 ± 0.0054
14,GGTAGTCCGG,1.02 ± 0.054
15,CTGAATACGT,1.009 ± 0.0078
16,CGTTTTGTTG,0.998 ± 0.014
17,CAGAGTGGCA,1.02 ± 0.027
18,TGTATTCAGG,1.01 ± 0.056
19,GCGTTTGGCT,0.996 ± 0.021
20,TTCCGGGCCG,1.03 ± 0.037
21,GGGGGTTGAG,1.03 ± 0.024
22,GCTATAGGTG,1.27 ± 0.057
23,CTTAAATATG,1 ± 0.012
24,CTGTCAAGTA,0.972 ± 0.012
25,ACCCTTCTGC,1.15 ± 0.017

row,Sequence,switch fluorescence ratio
1,ATTATATGGA,0.956 ± 0.01
2,TATGTGATCT,0.9762 ± 0.0052
3,TACTTTTATT,1.026 ± 0.0066
4,TTTGCCAAAA,1.14 ± 0.23
5,CCATGTGGG,1.02 ± 0.013
6,TATGCTAGC,1.03 ± 0.091
7,TGAATAGGGC,0.9882 ± 0.0097
8,CGTGTGGGGA,1.02 ± 0.045
9,TTGCGGCCTT,1.09 ± 0.081
10,CGTAGGGGGG,0.986 ± 0.03
11,AAAAGCGCT,0.999 ± 0.025
12,TTTCAGACAT,1.016 ± 0.008
13,TGTTTTGGCG,0.959 ± 0.018
14,ACCCGGCACA,1.21 ± 0.051
15,TTGGTTACAG,0.978 ± 0.031
16,GGCTCTGAGG,0.972 ± 0.02
17,TCATGGTTGG,0.997 ± 0.028
18,AGGCTCACAA,1.07 ± 0.03
19,TATTGGGTGA,0.99228 ± 0.00097
20,TGTGAGCCTG,0.98 ± 0.092
21,GAATGAAGAA,0.9989 ± 0.0081
22,TGGTTTTACG,1.019 ± 0.01
23,CGGATCTCGC,1.03 ± 0.01
24,CGTGGAGGGA,1.01 ± 0.027
25,CCGGCGGATT,1.08 ± 0.056

row,Sequence,switch fluorescence ratio
1,TAGGTCGGGA,0.976 ± 0.02
2,GCCGTGGGGC,0.997 ± 0.061
3,GTATGATTCG,0.9843 ± 0.0051
4,AATGGCATTA,0.984 ± 0.03
5,CGGTTTTAAT,0.99589 ± 0.00077
6,GCCTTTTTTT,0.991 ± 0.029
7,TTTATGTGTT,0.984 ± 0.021
8,CTTGGGGCTT,0.985 ± 0.014
9,GATGCACTCC,1.911 ± 0.0078
10,AGGACTTGTC,0.951 ± 0.01
11,AGTTCTTGGC,1.02 ± 0.0042
12,CAGGAATACT,3.61 ± 3
13,TTTGCTATAG,1.23 ± 0.28
14,ATATGAAGGG,1 ± 0.032
15,GGGAACTGGG,1.04 ± 0.049
16,CTTGGTGTTG,1.04 ± 0.065
17,GTGTGCGGGG,1.06 ± 0.079
18,AGTTTGATAT,0.999 ± 0.017
19,GGAGTATGAG,0.999 ± 0.021
20,GCACTCTGAG,0.993 ± 0.029
21,TTATCTCTGT,0.999 ± 0.022
22,AGTCGTCACG,0.9926 ± 0.0099
23,GGGGGAGCAG,0.9812 ± 0.0084
24,TCATTGAAGT,0.991 ± 0.008
25,ATAGTCAGAT,0.969 ± 0.014
